Key:
[1] = target: Anti-CD28 Fab (SEQ ID NOs: 202, 203); assay: phage binding ELISA on captured Fab;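 note: clonal phage supernatants added briefly to wells pre-incubated with CD28 antigen or with blocking buffer only, then washed, bound phage read by ELISA using HRP-coupled anti-M13 antibody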
Target sequence in this assay (VH, as listed by the source, chain 1 of 2): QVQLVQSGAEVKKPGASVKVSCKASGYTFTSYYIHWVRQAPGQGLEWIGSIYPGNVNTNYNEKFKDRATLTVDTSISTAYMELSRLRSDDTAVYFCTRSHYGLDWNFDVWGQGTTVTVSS
Target sequence in this assay (VL, as listed by the source, chain 2 of 2): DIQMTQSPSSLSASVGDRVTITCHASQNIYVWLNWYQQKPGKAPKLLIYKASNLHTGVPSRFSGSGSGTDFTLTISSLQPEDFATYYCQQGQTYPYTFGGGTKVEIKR
Method: (§1) Clonal phage were harvested as crude supernatants and screened via standard ELISAs. […] Prior to the addition of clonal phage, wells were incubated with blocking buffer and CD28 antigen or blocking buffer alone. Without washing or aspirating, clonal phage supernatants were then added to the wells and incubated for a short time. Wells were then washed followed by detection of bound phage using a horse radish conjugated anti-M13 antibody.

[2] = target: T1, anti-CD28 Fab (SEQ ID NOs: 202, 203); assay: phage ELISA on captured Fab;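 note: ELISA with clonal phage supernatants added to wells preincubated with CD28 antigen or with blocking buffer only, bound phage detected by HRP-conjugated anti-M13 antibody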
T1 construct: biotinylated and captured on neutravidin coated plates in the phage ELISA
Method: as §1

[3] = target: T2, Anti-CD28 Fab (SEQ ID NOs: 202, 203); assay: phage ELISA, Fab on plate, CD28 antigen as competitor
T2 construct: biotinylated and captured on neutravidin coated plates in the phage ELISA
T2 sequence (VH, as listed by the source, chain 1 of 2): as the sequence (VH, as listed by the source, chain 1 of 2) above
T2 sequence (VL, as listed by the source, chain 2 of 2): as the sequence (VL, as listed by the source, chain 2 of 2) above

[4] = target: T2, Anti-CD28 Fab (SEQ ID NOs: 202, 203); assay: phage ELISA, Fab on plate;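 note: crude clonal phage supernatants added to wells pretreated with blocking buffer with or without CD28 antigen, then bound phage read out via HRP-linked anti-M13 antibody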
Method: After panning, phage infected bacteria were plated out and colonies picked into 96 well blocks. Clonal phage was then amplified and separated from bacterial cells via centrifugation.
Clonal phage were harvested as crude supernatants and screened via standard ELISAs. […] Prior to the addition of clonal phage, wells were incubated with blocking buffer and CD28 antigen or blocking buffer alone. Without washing or aspirating, clonal phage supernatants were then added to the wells and incubated for a short time. Wells were then washed followed by detection of bound phage using a horse radish conjugated anti-M13 antibody. Clonal phage of interest were then sent for sequence analysis.

T1 sequence (VH, as listed by the source, chain 1 of 2): as the sequence (VH, as listed by the source, chain 1 of 2) above
T1 sequence (VL, as listed by the source, chain 2 of 2): as the sequence (VL, as listed by the source, chain 2 of 2) above

YCEGHLREYMLKCL [Phage-764]
Anti-CD28 Fab (SEQ ID NOs: 202, 203) signal [1]: 1.01

YCAGHNAQYMSKCL (on phage, pIII fusion) [Phage-545]
Anti-CD28 Fab (SEQ ID NOs: 202, 203) signal [2]: 1.55

YCAGHLDQYIEKCL (on phage, pIII fusion) [Phage-517]
Anti-CD28 Fab (SEQ ID NOs: 202, 203) signal [2]: 1.6

YCEGHLDQYMTKCL (on phage, pIII fusion) [Phage-578]
Anti-CD28 Fab (SEQ ID NOs: 202, 203) signal [2]: 1.47

YCDGHVAEYRHKCL (on phage, pIII fusion) [Phage-577]
Anti-CD28 Fab (SEQ ID NOs: 202, 203) signal [2]: 1.47

YCDGHAQEFIWKCL (on phage, pIII fusion) [Phage-518]
Anti-CD28 Fab (SEQ ID NOs: 202, 203) signal [2]: 1.6

YCEGHTLEYMWKCL (on phage, pIII fusion) [Phage-541]
Anti-CD28 Fab (SEQ ID NOs: 202, 203) signal [2]: 1.55

YCDGHSEAYMWKCL (on phage, pIII fusion) [Phage-519]
Anti-CD28 Fab (SEQ ID NOs: 202, 203) signal [2]: 1.59

YCVGHLPQYMQKCL [Phage-599]
Anti-CD28 Fab signal in the presence of CD28 [3]: 0.06 | Anti-CD28 Fab (SEQ ID NOs: 202, 203) signal [4]: 1.43

YCDGHSTLYMQKCL [Phage-806]
Anti-CD28 Fab (SEQ ID NOs: 202, 203) signal [1]: 0.88

YCDGHELQYMAKCL (on phage, pIII fusion) [Phage-515]
Anti-CD28 Fab (SEQ ID NOs: 202, 203) signal [2]: 1.6

YCEGHVLEYRGKCD (on phage, pIII fusion) [Phage-576]
Anti-CD28 Fab (SEQ ID NOs: 202, 203) signal [2]: 1.48

YCDGHSQEYMAHCL (on phage, pIII fusion) [Phage-536]
Anti-CD28 Fab (SEQ ID NOs: 202, 203) signal [2]: 1.56

YCEGHSAAYMQKCL (on phage, pIII fusion) [Phage-513]
Anti-CD28 Fab (SEQ ID NOs: 202, 203) signal [2]: 1.6

YCEGHSQEYKAKCF [Phage-802]
Anti-CD28 Fab (SEQ ID NOs: 202, 203) signal [1]: 0.9

YCDGHNWEYMEKCL [Phage-622]
Anti-CD28 Fab signal in the presence of CD28 [3]: 0.05

YCDGHTSEYMTKCL (on phage, pIII fusion) [Phage-546]
Anti-CD28 Fab (SEQ ID NOs: 202, 203) signal [2]: 1.54

YCDGHSVEYKLKCM (on phage, pIII fusion) [Phage-509]
Anti-CD28 Fab (SEQ ID NOs: 202, 203) signal [2]: 1.61

YCDGHLPVYMMKCL (on phage, pIII fusion) [Phage-544]
Anti-CD28 Fab (SEQ ID NOs: 202, 203) signal [2]: 1.55

YCDGHSLEYMVKCL (on phage, pIII fusion) [Phage-583]
Anti-CD28 Fab (SEQ ID NOs: 202, 203) signal [2]: 1.46

YCDGHLAEYIQKCL [Phage-759]
Anti-CD28 Fab (SEQ ID NOs: 202, 203) signal [1]: 1.04

YCEGHDWMYMEKCL [Phage-801]
Anti-CD28 Fab (SEQ ID NOs: 202, 203) signal [1]: 0.91

YCEGHLPLYMDKCL (on phage, pIII fusion) [Phage-512]
Anti-CD28 Fab (SEQ ID NOs: 202, 203) signal [2]: 1.6

YCAGHSQVYMWKCL [Phage-761]
Anti-CD28 Fab (SEQ ID NOs: 202, 203) signal [1]: 1.02

YCDGHLLMYMEKCL [Phage-800]
Anti-CD28 Fab (SEQ ID NOs: 202, 203) signal [1]: 0.91

YCDGHLPMYMKKCL (on phage, pIII fusion) [Phage-533]
Anti-CD28 Fab (SEQ ID NOs: 202, 203) signal [2]: 1.57

YCEGHIEPYMQKCL [Phage-769]
Anti-CD28 Fab (SEQ ID NOs: 202, 203) signal [1]: 0.99

YCDGHLPEYITKCL (on phage, pIII fusion) [Phage-573]
Anti-CD28 Fab (SEQ ID NOs: 202, 203) signal [2]: 1.49

YCEGHSSAYMAKCL [Phage-804]
Anti-CD28 Fab (SEQ ID NOs: 202, 203) signal [1]: 0.9

YCDGHRLEYLEKCL (on phage, pIII fusion) [Phage-516]
Anti-CD28 Fab (SEQ ID NOs: 202, 203) signal [2]: 1.6

YCDGHVLMYLAKCL [Phage-803]
Anti-CD28 Fab (SEQ ID NOs: 202, 203) signal [1]: 0.9

YCDGHKPEYMDKCL [Phage-770]
Anti-CD28 Fab (SEQ ID NOs: 202, 203) signal [1]: 0.99

YCDGHTEAYMSKCL [Phage-807]
Anti-CD28 Fab (SEQ ID NOs: 202, 203) signal [1]: 0.88

YCEGHLDMYVWKCL (on phage, pIII fusion) [Phage-535]
Anti-CD28 Fab (SEQ ID NOs: 202, 203) signal [2]: 1.56

YCDGHLEIYMSKCL (on phage, pIII fusion) [Phage-581]
Anti-CD28 Fab (SEQ ID NOs: 202, 203) signal [2]: 1.46

YCDGHLPEYIAKCQ [Phage-600]
Anti-CD28 Fab signal in the presence of CD28 [3]: 0.07 | Anti-CD28 Fab (SEQ ID NOs: 202, 203) signal [4]: 1.43

YCEGHSLEHIAKCL (on phage, pIII fusion) [Phage-584]
Anti-CD28 Fab (SEQ ID NOs: 202, 203) signal [2]: 1.46

YCDGHFTWYMAKCL [Phage-809]
Anti-CD28 Fab (SEQ ID NOs: 202, 203) signal [1]: 0.87

YCEGHIEQYMRKCL [Phage-762]
Anti-CD28 Fab (SEQ ID NOs: 202, 203) signal [1]: 1.01

YCDGHLEVYMSKCL [Phage-767]
Anti-CD28 Fab (SEQ ID NOs: 202, 203) signal [1]: 1

YCAGHTVENMAKCL (on phage, pIII fusion) [Phage-575]
Anti-CD28 Fab (SEQ ID NOs: 202, 203) signal [2]: 1.48

YCDGHSPLYMVKCL (on phage, pIII fusion) [Phage-537]
Anti-CD28 Fab (SEQ ID NOs: 202, 203) signal [2]: 1.56

YCAGHDQQYMEKCL (on phage, pIII fusion) [Phage-543]
Anti-CD28 Fab (SEQ ID NOs: 202, 203) signal [2]: 1.55

YCFGHAPEYLLKCL [Phage-763]
Anti-CD28 Fab (SEQ ID NOs: 202, 203) signal [1]: 1.01

YCAGHSEEYMDKCL (on phage, pIII fusion) [Phage-539]
Anti-CD28 Fab (SEQ ID NOs: 202, 203) signal [2]: 1.55

YCDGHIAEYRSKCL [Phage-810]
Anti-CD28 Fab (SEQ ID NOs: 202, 203) signal [1]: 0.87

YCDGHFLTYMTKCL (on phage, pIII fusion) [Phage-538]
Anti-CD28 Fab (SEQ ID NOs: 202, 203) signal [2]: 1.56

YCEGHMPEYLQKCL (on phage, pIII fusion) [Phage-514]
Anti-CD28 Fab (SEQ ID NOs: 202, 203) signal [2]: 1.6

YCAGHTQEYIEKCL (on phage, pIII fusion) [Phage-579]
Anti-CD28 Fab (SEQ ID NOs: 202, 203) signal [2]: 1.47

YCEGHLSEYIGKCL [Phage-811]
Anti-CD28 Fab (SEQ ID NOs: 202, 203) signal [1]: 0.87

YCEGHRPEYMANCL [Phage-768]
Anti-CD28 Fab (SEQ ID NOs: 202, 203) signal [1]: 1

YCDGHVGAYMWKCL [Phage-771]
Anti-CD28 Fab (SEQ ID NOs: 202, 203) signal [1]: 0.99

YCEGHRPEYMQKCV (on phage, pIII fusion) [Phage-574]
Anti-CD28 Fab (SEQ ID NOs: 202, 203) signal [2]: 1.48

YCEGHSSVYLWKCL [Phage-765]
Anti-CD28 Fab (SEQ ID NOs: 202, 203) signal [1]: 1

YCEGHLAAYMYKCL [Phage-805]
Anti-CD28 Fab (SEQ ID NOs: 202, 203) signal [1]: 0.89

YCDGHSLEYIEKCL [Phage-601]
Anti-CD28 Fab signal in the presence of CD28 [3]: 0.06 | Anti-CD28 Fab (SEQ ID NOs: 202, 203) signal [4]: 1.43

YCDGHLAIYIGKCL (on phage, pIII fusion) [Phage-580]
Anti-CD28 Fab (SEQ ID NOs: 202, 203) signal [2]: 1.47

YCEGHTPVYMPKCL (on phage, pIII fusion) [Phage-585]
Anti-CD28 Fab (SEQ ID NOs: 202, 203) signal [2]: 1.46

YCDGHSQAHMQKCL (on phage, pIII fusion) [Phage-542]
Anti-CD28 Fab (SEQ ID NOs: 202, 203) signal [2]: 1.55

YCDGHTAQYMWKCL [Phage-812]
Anti-CD28 Fab (SEQ ID NOs: 202, 203) signal [1]: 0.87

YCAGHSSEYLQKCL [Phage-760]
Anti-CD28 Fab (SEQ ID NOs: 202, 203) signal [1]: 1.03

YCEGHISEYMGKCL [Phage-808]
Anti-CD28 Fab (SEQ ID NOs: 202, 203) signal [1]: 0.88

YCEGHSWIYIAKCL [Phage-766]
Anti-CD28 Fab (SEQ ID NOs: 202, 203) signal [1]: 1

YCQGHLPQYVEKCL (on phage, pIII fusion) [Phage-534]
Anti-CD28 Fab (SEQ ID NOs: 202, 203) signal [2]: 1.57

Source: patent US20260274955A1 (JANUX THERAPEUTICS, published 2026)
